{"source": "paper PMC7431086", "about": "“Molecular basis of the selective processing of short mRNA substrates by the DcpS mRNA decapping enzyme” (Proceedings of the National Academy of Sciences of the …, 2020)", "proteins": {"B1": {"name": "DcpS from S. cerevisiae (residues 8-350; H268N) (enzyme, UniProt Q06151 8-350, looked up)", "chain": "FASLIKRFQFVSVLDSNPQTKVMSLLGTIDNKDAIITAEKTHFLFDETVRRPSQDGRSTPVLYNCENEYSCINGIQELKEITSNDIYYWGLSVIKQDMESNPTAKLNLIWPATPIHIKKYEQQNFHLVRETPEMYKRIVQPYIEEMCNNGRLKWVNNILYEGAESERVVYKDFSEENKDDGFLILPDMKWDGMNLDSLYLVAIVYRTDIKTIRDLRYSDRQWLINLNNKIRSIVPGCYNYAVHPDELRILVHYQPSYYHFNIHIVNIKHPGLGNSIAAGKAILLEDIIEMLNYLGPEGYMNKTITYAIGENHDLWKRGLEEELTKQLERDGIPKIPKIVNGFK", "notes": "Crystallised as a 1:1 complex with the capped dinucleotide m7GpppGU; also called Dcs1p; Scavenger Decapping Enzyme"}}, "target": "the molecule itself", "assay": "crystal structure; DcpS (8-350, H268N) in 1:1 complex with m7GpppGU RNA, 5 mg/mL, 10 mM Hepes pH 7.5, 100 mM NaCl, 1.6 M NH4SO4; space group P212121, two dimers per asymmetric unit; 2.9 A", "data": [{"protein": "B1", "values": [{"measurement": "binding result", "result": "binds"}]}]}
